# Values of other authors in article PMC4664829.
# Like-named read-outs stand apart in the source and are kept apart here.
# Columns and labels:
# [1] = target: T1, Glu14 (UniProt position 14, GAILAEVIGTT); test: kinetics; conditions: TPP+ association with substrate-free EmrE
# [2] = target: T1, Glu14; conditions: proton release from EmrE
substance,measurement,setting,value
EmrE (small multidrug resistance transporter) (Escherichia coli),pKa,[1],7.3
same,pKa,[2],8.4
